Measurements from article PMC3322874 (The Journal of Biological Chemistry, 2012).
Changes are numbered by the printed parent chain. Names may count otherwise.

Molecular target: the molecule itself
Test: crystal structure

B1: R182K-AfUGM (enzyme, Aspergillus fumigatus)
chain: THPDISVDVLVIGAGPTGLGAAKRLNQIDGPSWMIVDSNETPGGLASTDVTPEGFLYDVGGHVIFSHYKYFDDCLDEALPKEDDWYTHQRISYVRCQGQWVPYPFQNNISMLPKEEQVKCIDGMIDAALEARVANTKPKTFDEWIVRMMGTGIADLFMRPYNFKVWAVPTTKMQCAWLGEKVAAPNLKAVTTNVILGKTAGNWGPNATFRFPARGGTGGIWIAVANTLPKEKTRFGEKGKVTKVNANNKTVTLQDGTTIGYKKLVSTMAVDFLAEAMNDQELVGLTKQLFYSSTHVIGVGVRGSRPERIGDKCWLYFPEDNCPFYRATIFSNYSPYNQPEASKKLPTMQLADGSRPQSTEAKEGPYWSIMLEVSESSMKPVNQETILADCIQGLVNTEMLKPTDEIVSTYHRRFDHGYPTPTLEREGALTQILPKLQDKDIWSRGRFGSWRYEVGNQDHSFMLGVEAVDNIVNGAVELTLNYPDFVNGRQNTERRLVDGAQVFAKSKAQ
  stoichiometry N: 4

B2: R327K-AfUGM (enzyme, Aspergillus fumigatus)
chain: B1 chain with K181R, R326K
  stoichiometry N: 4
